Reference: publication PMC9505709, “Valorization of Biomasses from Energy Crops for the Discovery of Novel Thermophilic Glycoside Hydrolases through Metagenomic Analysis” (International Journal of Molecular Sciences, 2022)

Target: Aglu1, α-glucosidase of family GH31 from an unknown hyperthermophilic archaeon (unknown hyperthermophilic archaeon (metagenome; family Sulfolobaceae, unclassified genus))
Assay: SEC; gel filtration on Superose 6 10/300, isocratic 20 mM Tris HCl pH 8.0; markers thyroglobulin, apoferritin, BSA, cytochrome C; native mass 462 kDa against 80 kDa for the monomer

stoichiometry N: 6
Substance: Aglu1, α-glucosidase of family GH31 from an unknown hyperthermophilic archaeon (enzyme)
